Like-named read-outs stand apart in the source and are kept apart here.
Legend:
[1] = target: recombinant human IGF-II (human); experiment: ELISA
[2] = target: insulin from porcine pancreas (porcine); experiment: ELISA
human proinsulin (human) = experiment: ELISA
[3] = target: insulin from porcine pancreas (porcine)

human recombinant decorin protein core, sequence (P07585 31-359): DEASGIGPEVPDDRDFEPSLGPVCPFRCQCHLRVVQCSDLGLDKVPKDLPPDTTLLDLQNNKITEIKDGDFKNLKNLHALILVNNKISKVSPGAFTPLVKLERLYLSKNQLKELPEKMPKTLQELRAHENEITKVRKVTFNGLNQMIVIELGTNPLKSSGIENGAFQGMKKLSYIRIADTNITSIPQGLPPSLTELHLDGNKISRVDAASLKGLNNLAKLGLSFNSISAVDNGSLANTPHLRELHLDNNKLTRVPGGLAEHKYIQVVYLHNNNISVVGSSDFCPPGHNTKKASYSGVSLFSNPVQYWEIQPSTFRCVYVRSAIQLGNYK
insulin from porcine pancreas (porcine), sequence (P01315 25-54, chain 1 of 2): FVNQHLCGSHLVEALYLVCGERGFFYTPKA
insulin from porcine pancreas (porcine), sequence (P01315 88-108, chain 2 of 2): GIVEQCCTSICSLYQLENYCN
decorin proteoglycan, sequence (P07585 31-359): as the sequence (P07585 31-359) above
recombinant human IGF-II (human), sequence (P01344 25-91): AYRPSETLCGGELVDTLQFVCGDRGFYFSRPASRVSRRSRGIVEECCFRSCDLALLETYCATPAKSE

| Substance | Kd [1] [nM] | Kd [2] [nM] | Kd (human proinsulin (human)) [nM] | Kd [3] [nM] |
| --- | --- | --- | --- | --- |
| human recombinant decorin protein core (from UniProt P07585 31-359) (natural protein) | 1.5 | 3.1 | 9.3 | – |
| decorin proteoglycan (from UniProt P07585 31-359) (natural protein) | – | – | – | 13.4 |
